Laboratory results as given in IntAct's records for PubMed 22232549.

B1: Extra-large guanine nucleotide-binding protein 2 (Arabidopsis thaliana (Mouse-ear cress)), C6KIE6 (parent)
chain: MAAVIRKLLPFPSPNPKRDNRESDDDDETSSGYRIEYSFASEYKGPLIANVPRALPVEVDQIPTALPVSFSSLRSGISYPVAPLVMTKDTKRPPDSGIEKKNGFVDSAAGSSVVLIGRDVVSGSSSSSSSKRLDVPEEVKSPADFRLSPSSPLSASAREEDHLDDDRVSDVGPRAVRFVEPFQSSECDESSYVSDGESIAATHRAERKGKRGSCYRCQLGNRFTEKEVCIVCDAKYCFNCVRRAMGAMPEGRKCQACIGYRIDESKRASLGKCSRMLKRHLTDSELRQVMNAEITCKANQLPSRLIIVNDKPLSEDELYTLQTCPNPPKKLKPGHYWYDKVAGYWGKIGEKPSQIISPNNSIGGYISEKVSNGDTEIYINGREITKPELTMLKWAGVQCEGKPHFWVDSDGSYREEGQKHPIGNIWSKKRAKIACAVFSLPVPPASSAVEPYDVPLYEQKMLNKLLLIGSEKGGATTIYKQARSLYNVSFSLEDRERIKFIIQTNLYTYLAMVLEAHERFEKEMSNDQSSGNVGDETSAKPGNSINPRLKHFSDWVLKEKEDGNLKIFPPSSRENAQTVADLWRVPAIQATYKRLRDTLPRNAVYFLERILEISRSEYDPSDMDILQAEGLSSMEGLSCVDFSFPSTSQEESLESDYQHDTDMKYQLIRLNPRSLGENWKLLEMFEDADLVIFCVSLTDYAENIEDGEGNIVNKMLATKQLFENMVTHPSLANKRFLLVLTKFDLLEEKIEEVPLRTCEWFEDFNPLISQNQTSRHNPPMAQRAFHYIGYKFKRLYDSILEPVNMRGRSFKPKLFVCQVSLESDTVDNALRYAREILKWHVEETSMFQEMSTTSIEASSSS
partner: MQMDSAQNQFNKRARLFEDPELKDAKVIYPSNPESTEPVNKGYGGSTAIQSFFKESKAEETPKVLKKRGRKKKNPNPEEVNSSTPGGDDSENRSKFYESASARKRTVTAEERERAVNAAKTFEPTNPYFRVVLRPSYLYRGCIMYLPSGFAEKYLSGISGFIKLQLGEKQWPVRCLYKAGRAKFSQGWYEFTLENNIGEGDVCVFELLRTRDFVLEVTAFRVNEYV

Variants of: B1
Settings: with rem19_arath REM19, Q9XIB5

| effect of a mutation on the interaction | Variant |
| --- | --- |
| disrupting interaction | T476N |
